Results on one substance are retold here after patent US20240115704A1, “TREATMENT OF CANCER WITH NK CELLS AND A CD38-TARGETED ANTIBODY” (Artiva Biotherapeutics, Inc., priority 2021, published 2024).

This assay has as its target CD38 (human) (UniProt P28907). The assay is described as follows: cell-based or functional assay.

Substance daratumumab (antibody) displayed an ADCC (percent specific lysis) of MM.1R multiple myeloma cells by AB-101, 0.31:1 E:T, 2 µg/mL daratumumab, 4 h of 4.88%; an ADCC (percent specific lysis) of MM.1R multiple myeloma cells by AB-101, 10:1 E:T, 2 µg/mL daratumumab, 4 h of 42.4%; an ADCC (percent specific lysis) of MM.1S multiple myeloma cells by AB-101, 0.31:1 E:T, 2 µg/mL daratumumab, 4 h of 2.34%; an ADCC (percent specific lysis) of MM.1S multiple myeloma cells by AB-101, 10:1 E:T, 2 µg/mL daratumumab, 4 h of 19.8%. For the same substance, the ADCC (percent specific lysis) of NCI-H929 multiple myeloma cells by AB-101, 0.31:1 E:T, 2 µg/mL daratumumab, 4 h was 3.38%; the ADCC (percent specific lysis) of NCI-H929 multiple myeloma cells by AB-101, 10:1 E:T, 2 µg/mL daratumumab, 4 h stood at 46.4%; the ADCC (percent specific lysis) of RPMI 8226 multiple myeloma cells by AB-101, 0.31:1 E:T, 2 µg/mL daratumumab, 4 h came to 8.75%; the ADCC (percent specific lysis) of RPMI 8226 multiple myeloma cells by AB-101, 10:1 E:T, 2 µg/mL daratumumab, 4 h worked out at 58.2%. Also, the complement-dependent cytotoxicity of Daudi cells with human complement serum: daratumumab concentration at which lysis was saturated is < 0.41 µg/mL and the daratumumab-mediated ADCC (percent specific lysis) of Daudi cells by AB-101, 10:1 E:T, 2 µg/mL daratumumab, 4 h stood at 79.5%.
